Results on eight molecules are retold here after patent US6440696 (NEW ENGLAND MEDICAL CENTER, dated 2002).

First the molecules themselves.
B1: pGAD10 two-hybrid clone encoding the 194 carboxyl terminal amino acid residues of E6TP1 (other)
chain: NDVLFSSTYPSLPKSLPLRRPSYTLGMKSLHGEFSASDSSLTDIQETRRQPMPDPGLMPLPDTAADLDWSNLVDAAKAYEVQRASFFAASDENHRPLSAASNSDQLEDQALAQMKPYSSSKDSSPTLASKVDQLEGMLKMLREDLKKEKEDKAHLQAEVQHLREDNLRLQEESQNASDKLKKFTEWVFNTIDMS
notes: also called set of eleven identical strongly positive clones
B2: pGBT9-E6 bait (GAL4 fused to HPV16 E6 residues 2-158) (other)
chain: MKLLSSIEQACDICRLKKLKCSKEKPKCAKCLKNNWECRYSPKTKRSPLTRAHLTEVESRLERLEQLFLLIFPREDLDMILKMDSLQDIKALLTGLFVQDNVNKDAVTDRLASVETDMPLTLRQHRISATSSSEESSNKGQRQLTVSHQKRTAMFQDPQERPRKLPQLCTELQTTIHDIILECVYCKQQLLRREVYDFAFRDLCIVYRDGNPYAVCDKCLKFYSKISEYRHYCYSLYGTTLEQQYNKPLCDLLIRCINCQKPLCPEEKQRHLDKKQRFHNIRGRWTGRCMSCCRSSRTRRETQL
notes: also called pGB9-E6
B3: HPV11 E6 protein (other)
chain: MESKDASTSATSIDQLCKTFNLSLHTLQIQCVFCRNALTTAEIYAYAYKNLKVVWRDNFPFAACACCLELQGKINQYRHFNYAAYAPTVEEETNEDILKVLIRCYLCHKPLCEIEKLKHILGKARFIKLNNQWKGRCLHCWTTCMEDLLP
B4: pGAD10 two-hybrid clone encoding the 378 carboxyl terminal amino acid residues of E6TP1 (other)
chain: SSRHSASPVVFTSARSSPKEELHPAAPSQLAPSFSSSSSSSSGPRSFYPRQGATSKYLIGWKKPEGTINSVGFMDTRKRHQSDGNEIAHTRLRASTRDLRASPKPTSKSTIEEDLKKLIDLESPTPESQKSFKFHALSSPQSPFPSTPTSRRALHRTLSDESIYNSQREHFFTSRASLLDQALPNDVLFSSTYPSLPKSLPLRRPSYTLGMKSLHGEFSASDSSLTDIQETRRQPMPDPGLMPLPDTAADLDWSNLVDAAKAYEVQRASFFAASDENHRPLSAASNSDQLEDQALAQMKPYSSSKDSSPTLASKVDQLEGMLKMLREDLKKEKEDKAHLQAEVQHLREDNLRLQEESQNASDKLKKFTEWVFNTIDMS
notes: also called one distinct strongly positive clone; longer yeast two-hybrid cDNA clone
B5: HPV6 E6 protein (other)
chain: MESANASTSATTIDQLCKTFNLSMHTLQINCVFCKNALTTAEIYSYAYKHLKVLFRGGYPYAACACCLEFHGKINQYRHFDYAGYATTVEEETKQDILDVLIRCYLCHKPLCEVEKVKHILTKARFIKLNCTWKGRCLHCWTTCMEDMLP
notes: also called low-risk HPV6 E6
B6: HPV16 E6 protein (other)
chain: MFQDPQERPRKLPQLCTELQTTIHDIILECVYCKQQLLRREVYDFAFRDLCIVYRDGNPYAVCDKCLKFYSKISEYRHYCYSLYGTTLEQQYNKPLCDLLIRCINCQKPLCPEEKQRHLDKKQRFHNIRGRWTGRCMSCCRSSRTRRETQL
notes: also called high-risk HPV16 E6; wild-type E6
B7: murine p53/GAL4 DNA binding domain fusion protein (pVA3) (other)
chain: MKLLSSIEQACDICRLKKLKCSKEKPKCAKCLKNNWECRYSPKTKRSPLTRAHLTEVESRLERLEQLFLLIFPREDLDMILKMDSLQDIKALLTGLFVQDNVNKDAVTDRLASVETDMPLTLRQHRISATSSSEESSNKGQRQLTVSPVTETPGPVAPAPATPWPLSSFVPSQKTYQGNYGFHLGFLQSGTAKSVMCTYSPPLNKLFCQLAKTCPVQLWVSATPPAGSRVRAMAIYKKSQHMTEVVRRCPHHERCSDGDGLAPPQHLIRVEGNLYPEYLEDRQTFRHSVVVPYEPPEAGSEYTTIHYKYMCNSSCMGGMNRRPILTIITLEDSSGNLLGRDSFEVRVCACPGRDRRTEEENFRKKEVLCPELPPGSAKRALPTCTSASPPQKKKPLDGEYFTLKIRGRKRFEMFRELNEALELKDAHATEESGDSRAHSSYLKTKKGQSTSRHKKTMVKKVGPDSD
notes: Control bait from Clontech; also called murine p53 fused to Gal4 in pGBT9
B8: human lamin/GAL4 DNA binding domain fusion protein (pLam 5') (other)
chain: MKLLSSIEQACDICRLKKLKCSKEKPKCAKCLKNNWECRYSPKTKRSPLTRAHLTEVESRLERLEQLFLLIFPREDLDMILKMDSLQDIKALLTGLFVQDNVNKDAVTDRLASVETDMPLTLRQHRISATSSSEESSNKGQRQLTVSSEEVVSREVSGIKAAYEAELGDARKTLDSVAKERARLQLELSKVREEFKELKARNTKKEGDLIAAQARLKDLEALLNSKEAALSTALSEKRTLEGELHDLRGQVAKLEAALGEAKKQLQDEMLRRVDAENRLQTMKEELDFQKNIYSEELRETKRRHETRLVEID
notes: Control bait from Clontech; also called human lamin fused to Gal4 in pGBT9

Assay [1] has as its target B7. Briefly: yeast two-hybrid, control bait.
Assay [2] concerns the target B8. Briefly: yeast two-hybrid, control bait.
Assay [3] concerns the target B2. Briefly: yeast two-hybrid: growth on Trp-, Leu-, His- medium and beta-gal activity.
Assay [4] deals with B4. The description is as above.
Assay [5] addresses T1, GST (UniProt P08515 1-218 = GST).
T1 construct: Negative control; also called GST alone
Briefly: GST pull-down of in vitro translated 35S-labelled E6.

Assay [6] deals with T2, pGAD10 two-hybrid clone encoding the 476 carboxyl-terminal amino acids of E6-AP (human, UniProt Q05086 400-875).
T2 construct: domain: 476 carboxyl-terminal amino acids; also called one weakly positive clone
T2 sequence: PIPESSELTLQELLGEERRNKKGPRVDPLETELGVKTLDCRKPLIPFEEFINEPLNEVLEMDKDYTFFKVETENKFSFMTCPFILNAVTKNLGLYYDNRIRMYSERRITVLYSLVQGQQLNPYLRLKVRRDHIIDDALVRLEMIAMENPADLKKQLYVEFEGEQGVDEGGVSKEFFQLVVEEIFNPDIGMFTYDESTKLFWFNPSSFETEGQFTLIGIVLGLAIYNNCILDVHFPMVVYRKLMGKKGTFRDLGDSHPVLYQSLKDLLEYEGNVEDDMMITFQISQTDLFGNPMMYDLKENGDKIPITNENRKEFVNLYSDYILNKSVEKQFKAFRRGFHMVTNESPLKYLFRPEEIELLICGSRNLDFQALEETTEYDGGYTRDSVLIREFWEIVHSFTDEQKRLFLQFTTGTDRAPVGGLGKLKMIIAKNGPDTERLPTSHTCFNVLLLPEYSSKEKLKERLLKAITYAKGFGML
Kind of assay: yeast two-hybrid, control bait.

For assay [7], the target named is B4. Kind of assay: yeast two-hybrid, control bait.

T1 sequence (P08515 whole entry): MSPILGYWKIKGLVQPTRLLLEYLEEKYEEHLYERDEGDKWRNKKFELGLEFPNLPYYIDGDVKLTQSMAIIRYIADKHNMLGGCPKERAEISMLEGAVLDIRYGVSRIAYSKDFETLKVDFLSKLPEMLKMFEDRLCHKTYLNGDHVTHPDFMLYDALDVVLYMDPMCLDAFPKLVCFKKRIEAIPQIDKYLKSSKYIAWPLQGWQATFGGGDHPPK

As for B1, the binding result was “no binding” in assay [1], “no binding” in assay [2] and “binds” in assay [3].

With B2, the binding result in assay [4] was “binds”.

On to B3, for which, in assay [5], the binding result is “no binding (tested: 1 µg GST fusion protein)”.

In the case of B4, in assay [1], the binding result is “no binding”.

With B5, the binding result in assay [5] is reported as “no binding (tested: 1 µg GST fusion protein)”.

Take B6: the binding result in assay [5] is “no binding (tested: 1 µg GST fusion protein)”.

In the case of B7, in assay [6], the binding result is recorded as “no binding”.

Turning to B8, the binding result in assay [7] and in assay [6] was “no binding” each time.
